# ± gives the standard error. This sample holds only a part of the variants without activity.
# B1: glmS ribozyme (parent)
# chain: AUAAAAGCGCCAGAACUACAGAAAUGUAGUUGACGAGGAGGAGGUUUAUCGAAUUUUCGGCGGAUGCCUCCAAA
# Variants of: B1
# Experiment: self-cleavage kobs at 2500 uM GlcN6P; higher = faster cleavage; RNA array
# Details: with glucosamine-6-phosphate
# Outline: (§1)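 Tracking of barcoded ribozyme variants used a hybridised Cy3 probe at 37 °C, after in situ transcription by E. coli RNA polymerase on sequenced MiSeq chips. The flowed solution held 40 μM to 10 mM glucosamine-6-phosphate in HEPES/KCl/Mg(OAc)2 buffer, and imaging ran over ~14 h. kobs was taken from exponential decay fits of normalised per-tile medians, and kcat and KM from weighted Michaelis–Menten fits.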
row,Variant,self-cleavage kobs at 2500 uM GlcN6P [s⁻¹]
1,C16U C34G A53C,< 1e-05
2,C34A A36U A52G,< 1e-05
3,A33U G41U G62U,< 1e-05
4,U30A C50G U56A C67U,7.78e-05 ± 1.9e-05
5,A12G U30A U69C,5.49e-05 ± 1.7e-05
6,A15U U56C C68A C71G,< 1e-05
7,A15U A64G C71G,5.53e-05 ± 1.5e-05
8,G41C A52C U55G G60C C68U,< 1e-05
9,U30G U56G C71A,0.000262 ± 6.3e-05
10,A39G U45A A64U,0.000381 ± 0.00012
11,G13U G40A A53G,0.000153 ± 3.6e-05
12,G35A U69C,< 1e-05
13,U31G G32A A64G,0.000581 ± 0.00022
14,A15G C34A G37C,< 1e-05
15,G32C G62C C67U,< 1e-05
16,A12U A33C G43A C67U,< 1e-05
17,A12G A42U U69A,0.000849 ± 0.00021
18,A15U U55G C58U C70G,6.29e-05 ± 2.7e-05
19,G13U U57G U65C,< 1e-05
20,G13U G40A A42C U65G,< 1e-05
21,A33G U46A G59C C67G C68G,4.87e-05 ± 2.1e-05
22,A14U G29A G40U U45A C50G C71G,< 1e-05
23,G37U A39U G44C C50G C70U,< 1e-05
24,A12G C68A C71A,< 1e-05
25,A12G G13U G60U,< 1e-05
26,A14C U45A U57A,3.29e-05 ± 1.2e-05

row,Variant,self-cleavage kobs at 2500 uM GlcN6P [s⁻¹]
1,C16G G32U G44A G60A,< 1e-05
2,A33G U47G G66A,< 1e-05
3,A12C U54G C71U,0.00338 ± 0.0011
4,C16U G51C U54C U57G,< 1e-05
5,A15G A39U G60C,< 1e-05
6,A14G G29C A39G,0.000197 ± 9.1e-05
7,G41C G43C U47A A64G,< 1e-05
8,C19A U30C,7.18e-05 ± 2.3e-05
9,A15G U30A G44U U45A,0.000178 ± 5.5e-05
10,G41U C50U G51U,< 1e-05
11,G26U G32A G63A C71U,< 1e-05
12,G29C A42G C67G,0.000111 ± 5.1e-05
13,A14U U30G G41U,0.000233 ± 7.4e-05
14,A12U G29C A36U G44U C61G,< 1e-05
15,G35A C50U,2.72e-05 ± 1.2e-05
16,G13U U31G G41U G43U,< 1e-05
17,G37C G60C C68G,< 1e-05
18,G38A A39U A64C,< 1e-05
19,A33C G59C A64G G66A C70A,< 1e-05
20,A12U A36G A52C C67U C71U,< 1e-05
21,A12G C16U C67U,0.000252 ± 5.2e-05
22,C34G C58A C71U,< 1e-05
23,A36U U69G C71A,0.000556 ± 0.00021
24,A33G U56C G60A,< 1e-05
25,U30A G40A C71A,0.00142 ± 0.0005
26,G35C A48G G51U U57G G60U,< 1e-05

row,Variant,self-cleavage kobs at 2500 uM GlcN6P [s⁻¹]
1,G38C A53U,< 1e-05
2,U30G G43U A52G C67A U69G,< 1e-05
3,G40C A64U C68U,< 1e-05
4,U31G G32A U56G,9.1e-05 ± 2.5e-05
5,G32C A33C G37C A48C C71U,< 1e-05
6,G41A A53G U55A,0.000666 ± 0.00022
7,G40A U55A U56C,0.000458 ± 0.00017
8,A36G G41U G60A,< 1e-05
9,A12G U45G C50A U57G,< 1e-05
10,G37A G40C U47G U56G G60C C71G,< 1e-05
11,G38U U49G U57A C70G,6.84e-05 ± 3.3e-05
12,A15U U45A U65G,0.00134 ± 0.00059
13,A14C A36U G59U,< 1e-05
14,A12U G13C U56G C67U,< 1e-05
15,G32C A64G C70A,< 1e-05
16,C34A G40C U46C U47A G59C,< 1e-05
17,A36C G41U G43U G51C C58G G60A C67A,< 1e-05
18,A15G U55A G66C,0.000727 ± 0.00013
19,U30A U31A G40A U57G,< 1e-05
20,A14G A42C U49C,< 1e-05
21,G41U G43C G51U C68G,< 1e-05
22,G26U G66U,0.000774 ± 0.00023
23,G41U U56C C70G,0.00166 ± 0.00032
24,A14U G40C U46C A53G C71G,0.00101 ± 0.00038
25,A15U G44U C71U,< 1e-05
26,U31G G32A U46G A52U,< 1e-05

row,Variant,self-cleavage kobs at 2500 uM GlcN6P [s⁻¹]
1,U31C A36U,< 1e-05
2,A15C G32U C34U,< 1e-05
3,G38U U54G C71A,< 1e-05
4,C16U G32C A36G C58G G59C C61A,< 1e-05
5,G29A G60U A64G,< 1e-05
6,A14C U46G C70A,0.000308 ± 9.2e-05
7,A33C G37A U47A,< 1e-05
8,A15G G32C C68G,< 1e-05
9,G13U A39C A48C,< 1e-05
10,U31C G32A G38C G43A,< 1e-05
11,C16U U30G G32A C68U,7.75e-05 ± 3.2e-05
12,U30C A42C U46A,< 1e-05
13,G29C G43U G62C,< 1e-05
14,G38U G41U G59C U65A,< 1e-05
15,G32C A39U C50G A52C U57A A64U,< 1e-05
16,G29C G38U U56C,< 1e-05
17,A12U A14U G29C U49A,< 1e-05
18,A14C C34G A39C,< 1e-05
19,G32A G44U U49A G63A,< 1e-05
20,G37A G40C A42G,0.000126 ± 4.4e-05
21,G32U U55G C70U,0.000141 ± 5e-05
22,G41C G59U C67U,< 1e-05
23,A36C U47G A52G G60C,< 1e-05
24,C34A U47C A53U,< 1e-05
25,A12C G13U U30C G60A G66A,< 1e-05
26,U31C G37U U65A,< 1e-05

row,Variant,self-cleavage kobs at 2500 uM GlcN6P [s⁻¹]
1,G35U C58G A64U,< 1e-05
2,G40C U54G C70U,0.000933 ± 0.00021
3,U30G G43U U45A C68U,0.000375 ± 9.4e-05
4,A33C U56C C71A,< 1e-05
5,G38U U45G G51A C67U,< 1e-05
6,U31G U45C,0.000406 ± 0.00014
7,G38C U56A C67G C68G,0.000115 ± 4.5e-05
8,C34A A42C A52U C71A,< 1e-05
9,A15C G43A G44U G59U,< 1e-05
10,A36U U55C C58G,< 1e-05
11,A14G G41U U69A,8.6e-05 ± 2e-05
12,U31G G38C U46C U65G,< 1e-05
13,G13A U30C G59A,< 1e-05
14,U31A A48G G59A,0.000108 ± 3.6e-05
15,A12U A39U G40A,0.00415 ± 0.0015
16,A12G A14U G66A,6.8e-05 ± 1.9e-05
17,A14G C16G A64G U69G,5.19e-05 ± 2.3e-05
18,G29A U30A A53G U65G,6.03e-05 ± 1.7e-05
19,A24C G26U G40U,0.00202 ± 0.00051
20,C19A U31C U45G,0.000156 ± 4.3e-05
21,A33U G35A U45G C50G C70A,< 1e-05
22,G29C G40A U56G,4.42e-05 ± 1.1e-05
23,G40U U47G U54C,0.00079 ± 0.00014
24,A12G U49A U65A,< 1e-05
25,G29C U49G C61U,< 1e-05
26,A39U G66A C68G,4.5e-05 ± 2e-05

row,Variant,self-cleavage kobs at 2500 uM GlcN6P [s⁻¹]
1,A39G C50U U55A C70U,4.43e-05 ± 1.7e-05
2,A14G U31G G43C,< 1e-05
3,C34U G40C G43A,< 1e-05
4,U31G G32U C71U,0.000775 ± 0.00015
5,G32A U45G G51C,< 1e-05
6,G32U G40C A42G,7.39e-05 ± 1.8e-05
7,C16U G29U A53U,0.00254 ± 0.00062
8,C16A U31C G43A U47G A53G C68U,8.35e-05 ± 2.9e-05
9,G37A A53U U55G,0.000444 ± 9.3e-05
10,G29U U45G C71U,0.000117 ± 5e-05
11,A14G A33U G60U,< 1e-05
12,C16G G29U C34G,< 1e-05
13,G26U A33C C34A U47G,< 1e-05
14,A39U U65C C70G,0.000144 ± 3.7e-05
15,C34A A36C G37U G51U,< 1e-05
16,G13C G29C G38U C67G,0.000596 ± 0.0002
17,A12G G32U U45G G59U,< 1e-05
18,U31G G41A G63U,< 1e-05
19,A12G A33G G44C,< 1e-05
20,G29C C50U A53G C71U,< 1e-05
21,A12U A36C G59U U65A,< 1e-05
22,U30A G43C G51C C67G,< 1e-05
23,G32A U69G C70G C71U,0.00186 ± 0.00064
24,G38A C50G A52G,4.75e-05 ± 1.6e-05

# Variants of: B1
# Experiment: self-cleavage kobs at 10000 uM GlcN6P; higher = faster cleavage; RNA array
# Details: with glucosamine-6-phosphate
# Outline: as §1
row,Variant,self-cleavage kobs at 10000 uM GlcN6P [s⁻¹]
1,A39G U45A A64U,0.000499 ± 0.00011
2,G35A U69C,< 1e-05
3,U31G G32A A64G,0.00106 ± 0.00026
4,G32C G62C C67U,< 1e-05
5,A12G A42U U69A,0.00112 ± 0.00029
6,G13U U57G U65C,< 1e-05
7,A12G G13U G60U,< 1e-05
8,A14G G29C A39G,0.000412 ± 7.6e-05
9,C19A U30C,6.71e-05 ± 2.2e-05
10,G35A C50U,4.87e-05 ± 8e-06
11,A33C G59C A64G G66A C70A,< 1e-05
12,A36U U69G C71A,5.84e-05 ± 1.8e-05
13,G38C A53U,< 1e-05
14,G40C A64U C68U,< 1e-05
15,U31G G32A U56G,0.000522 ± 9.3e-05
16,A12G U45G C50A U57G,< 1e-05
17,A14U G40C U46C A53G C71G,0.00202 ± 0.00042
18,A15U G44U C71U,< 1e-05
19,U31C A36U,< 1e-05
20,C16U U30G G32A C68U,0.000157 ± 5.1e-05
21,A24C G26U G40U,0.00158 ± 0.00035
22,C16U G29U A53U,0.00591 ± 0.00094
23,A14G A33U G60U,< 1e-05

# — the supplement of paper PMC7125110
